Assay results from the DeepSol protein solubility set.

test: soluble on expression in E. coli; label from the status in PepcDB or PDB records

Sequence | soluble on expression in E. coli
MGSDKIHHHHHHMGRLFYKPENAWVGDLIPYYENGTYYGFYLHDPRIRDKEYAEDTTWHLIETKDFVNLDYKGESIARGGIHDANKNAYTGSVIKCEKDGLYHVFYTAYNEDFKLRGKTIQSVMQATGKNLENLETVKDFLFVSDGKQYEEFDWRDPFVFWNDEDQCYYMLLASRVTNRGDLRGGCIALCKSEDLINWTYEKPFYDPKMYITMECPELFKMGEYWYLVFSTFSDQFTTHYRISKNWNGPWEIPDDDVFDTRADYAIKTASDGKRRFAFGWIASKYGNTDFGPWEWGGTMNFHEIIQNSKNGELRIKAIPEVLDYFSKEIELKKETLYNCKMVQAQDGVSVESDTLGALLYPLEGDTFALDMVIKPERYHEFGIALHVDKELETGYFLRMNPKNQLVAWDMWPRGEQGRYQWQIKGDVPYQIETARKLPKAEEYRVHIIKEKDICVVYINDEIVLSTRMYNHKDGYAGIYVVQGDVKLIQYKEKRSE | not soluble
GGGGGGMLNRVFLEGEIESSCWSVKKTGFLVTIKQMRFFGERLFTDYYVIYANGQLAYELEKHTKKYKTISIEGILRTYLERKSEIWKTTIEIVKIFNPKNEIVIDYKEI | soluble
MNNTVKTDGDSVSGRDLPITKISEDRFERSAYSAQLANIICDVAPWGASTVFSLTGQWGSGKTSLVNLIRSEESLSNEKWTIVDFNPWVASDPQSLIEEFYRVIVGTVPDDKTGQKIKTVLQKTFSTIGSIAGGVGGFGVLEALALSKGVDAANAVYKTWKQEQDSWPTLYTRAANHFKDLNKRILIVVDDIDRLHTDELALLMKVIRLLGRFPQVNYLLVYEEESLLTTLARSTAVGGSEDDALRFMEKIVQYPFDVPPLTSFQIEKELSALFDKLFQGVSLSGDPEDFALVKSRMFDVWEKTLVTPRLLHRFAALLTNWTRIYGSGEVNGVDLTILATIRIVFPSVYKRLSRAKEVLLQGGRTTGLEHHHHHH | soluble
MTMLKNNLELLKKRYPEIYNEIKDIHVDSNAYQIIQNNEGQKTLKVTLDLYGENKSFFLHSKYHPDVEADRFAREQYKPEFSIQILYGFGLGYHVEKIAGLLKPDSMLYVIENNLMVFRSALENMDLCPILENRNVSLIVSKDVGYISEKVKELIDNNLDKVSFITHPASLKAIPEENEYFKFVMENWNLKKSITDDYDNTLRNNAKENLKLNSPNVGIFFDKFKDVPIIIVSTGPSLDKNIDLLKEAKGRALIISAGSALRPLLMRNIKPDFFAIIDPQDITYNQIKGYENIGIPFIYLVTAASYTVSRYLGPKLVAYYGKYNNSSEHLVDSGGSVATTILDIAIKMGGNPIILVGQDLAYVDGKNHAQYGSHASIYSPELKNMRRVKGQNGEMLYTSLGLLSYKYWIENRIQKEKRIFINATEGGAYIEGMKHIKLRDVISDYLKESFDFENKIKSILKESGIQHVQG | soluble
MGSDKIHHHHHHMRDTWRWTMTQNKRSGNRRTPTPELDSASLVPPTVPSVVDDVEGGKPNTVEFRATYSPLRVEFHPWANSHPEIDEEYLFLYWNDVLVDKKTFSKPIEPEELFILVPVDKLIEGPHRLHYEVTLYSDTHVSSRPLDIYIDKTPPLLPADDRLMLPDYVIREGVTEEYLAANGDKLVCTVPSFIGAEPGDVVKWFYSENGAGQEMVDMMTLTQEHIETLGPLGTSKPLELTFPGAFIRQSGNGTRYVRYEVQDRAGTQPQRALAVALESDLSLAPRELPPPRIKEAKGSDYQSTLEPGNAFDGVTFVIPDDADIRPNETVTVFWGQPGTLGGYSTSTPISPGALEYLIPSQYVPPHMSGRVELYYQIDKPDVPPSPSHYVTVRKIEGLPIVQCSDIRNRALNLRTLGESTTFTLESWPFRHTSQFVNAWIDGVESGNVTREIRLPIATALPVPSETGVMVLGSVTKTELLRLAINYQFRVSVEVSFDDKLSWLKFPDAAAQLEDKP | not soluble
MSLTNFSQQHLPLVEKVMVDFIAEYTENERLKEAMLYSIHAGGKRLRPLLVLTTVAAFQKEMETQDYQVAASLEMIHTYSLIHDDLPAMDDDDLRRGKPTNHKVFGEATAILAGDGLLTGAFQLLSLSQLGLSEKVLLMQQLAKAAGNQGMVSGQMGDIEGEKVSLTLEELAAVHEKKTGALIEFALIAGGVLANQTEEVIGLLTQFAHHYGLAFQIRDDLLDATSTEADLGKKVGRDEALNKSTYPALLGIAGAKDALTHQLAEGSAVLEKIKANVPNFSEEHLANLLTQLQLREGHHHHHH | soluble
MAHNYLLEIGLEEIPAHVVTPSIKQLVQKVTAFLKENRLTYDSIDHFSTPRRLAIRINGLGDQQPDIEEDAKGPARKIAQDADGNWTKAAIGFTRGQGLTVDDITFKTIKGTDYVYVHKLIKGKMTKEILTGLKEVVESINFPTMMKWANFDFKYVRPIRWLVSILDEEVLPFSILDVTAGRRTEGHRFLGEAVELANAEEYEAKLHDQFVIVDADERKQLISNQIKAIAESNRWNVTPNPGLLEEVNNLVEWPTAFNGGFDEKYLAIPEEVLITSMRDHQRFFFVRDQAGKLLPNFISVRNGNEEFIENVVRGNEKVLTARLEDAAFFYEEDQKHDINYYVDRLKKVSFHDKIGSMYEKLQRVNSIAKVIGNTLNLNQTELDDIDRATMIYKFDLVTGMVGEFSELQGVMGEKYAQLNGENQAVAQAIREHYMPNSAEGDLPESVTGAVVALADKFDNIFSFFSAGMIPSGSNDPYALRRHAYGIVRILNSRDWQLDLNQFKSQVKTELAENGTAFGVDVDQNFDQVLNFFNDRIKQLLDHQKISHDIVETVLTGNNHD | not soluble
MGSDKIHHHHHHMLLIDTHAHVLSPDRTTFPRDYGLDMAWARGDLSAQQLVAAMDESSISKTLLIQAYSAYRYDNSYLESVIGEFPDRFAGVCMVDPLARDVSDRLTSLIVDRKFAGTRIVIVQPEPRLDDPAMAPFYETCAELRTPLCVLTIPPKLKELEVPLSQWPSLQVVVEHLGLIHTASGDSVSKERPLLDLARFPNCILKFSTISLRVAAAFEGGAQGQFERLIDAFGAQRLMWGSDYPSTPEGGIPGLVNEMHQALDFLPHHDLALLSGEAACRIWSTLRPVSSRGLA | not soluble
MGSDKIHHHHHHMIKSVLVIRNDKIGDFVLTWPALYELKMALPNASIEVFVDPVLKDFAMACPYIDHVIVDDGDDQAITKAFAERHYDAVIVSRSQIRTYRLLRKLDIPYKLAPKLNWYQYLYQHRTSIEVPKGLGGWRKSCMMVERFLADHRIPVPTLPTRYWDLSHERRKWQDHYGQQGEERLIFAHPGTGGSSGGISPSDFAGLLAQVDKLTAIECKFVLTYSGQEIALAQQIYDLLSAQGIKVVMAEPLASLADFAKSLVAADMFMAGSTGPLHIAGLHNVPTVGFYAGRRSAPKVRWQTLTQSERRLAFTPPVGKKTGRNMALIDFDLAAKEIAAFLDTQYASQSAVS | not soluble
MNMSQNLDFIHSAQRTIGLERDAVDSLLARIGDDFVKACELLLAGKGRVVVVGMGKSGHVGKKIAATLASTGTPSFFVHPAEASHGDMGMITKDDVVLALSNSGSTAEIVTLLPLIKRLGITLISMTGNPESPLAKAAEVNLDASVGQEACPLNLAPTSSTTVTLVLGDALAIALLEARGFTAEDFAFSHPGGALGRRLLLKVEDVMHVGEGLPQVLLGTSLTGALMEMTRKGLGMTVVLDEHGKLAGIFTDGDLRRALDRGIDVRQVTIDQVMTVHGKTVRAEILAAEALKIMEDNKIGALVVVDADDRPVGALNMHDLLRAGVM | not soluble
MGSDKIHHHHHHGAGISTESGIPDYRSKDVGLYARIAHKPIYFQDYMRSNRCRQRYWSRNFLAWPRFGQAAPNINHYALSKWEASDRFQWLITQNVDGLHLKAGSKMVTELHGSALQVKCTTCDYIESRQTYQDRLDYANPGFKEEHVAPGELAPDGDIILPLGTEKGFQIPECPSCGGLMKTDVTFFGENVNMDKVNFCYEKVNECDGILSLGTSLAVLS | not soluble
MGSDKIHHHHHHMSEKKILILCQYFYPEYVSSATLPTQLAEDLIANHINVDVMCGWPYEYSNHKQVSKTEMHRGIRIRRLKYSRFNNKSKVGRIINFFSLFSKFVINIPKMLKYDQILVYSNPPILPLIPDVLHRLLKKKYSFVVYDIAPDNAIKTGATRPGSMIDKLMRYINRHVYKNAENVIVLGTEMKNYLLNHQISKNADNIHVIPNWYDMRQLQDNRIYNDTFKAYREQYDKILLYSGNMGQLQDMETLISFLKLNKDQPQTLTILCGHGKKFADVKTAIEDHRIENVKMFEFLTGTDYADVLKIADVCIASLIKEGVGLGVPSKNYGYLAAKKPLVLIMDKQSDIVQHVEQYDAGIQIDNGDAHAIYNFINTHSSKELHEMGERAHQLFKDKYTREINTMKYYNLLK | not soluble
MAHHHHHHMNKHICIYGGSFDPITHAHEMVLAEVSSLDWVDEIWVVLCRCRNDKHLTEFQHRHNMFSLIMNNNSPKMLKNKIFLKDIECKETTTPTYDLLKMQKEKYPNYTFYFTIGSDLLNDIFFWDNGEKLVAENNFIIVERGNFKIDENVLKKFPSYYLIKIENMSFINYISSSDARKMLSQKNNSEDLQKYIHPVIINYIKEHDLYDNNSA | soluble
MAHHHHHHMRLILLGAPGAGKGTQANFIKEKFGIPQISTGDMLRAAVKAGTPLGVEAKTYMDEGKLVPDSLIIGLVKERLKEADCANGYLFDGFPRTIAQADAMKEAGVAIDYVLEIDVPFSEIIERMSGRRTHPASGRTYHVKFNPPKVEGKDDVTGEPLVQRDDDKEETVKKRLDVYEAQTKPLITYYGDWARRGAENGLKAPAYRKISGLGAVEEIRARVRRAQVSE | soluble
MTNSSSSKKQAQDQPETSEPTLKSLKTKMTKSDEKQKKLKDIEISVPIVYGNVAFWLGKKASEYQSHKWAVYVRGATNEDISVVVKKVVFQLHSSFNSPTRVIEEPPFEVSESGWGEFEIAMTLHFHSDVCDKPLSLYHHLKLYPEDESGPLTMKKPVVVESYDEIVFPDPSESFLARVQNHPALTFPRLPSGYNLPAPMQVEDTGKKKRGDTKDHSLGQWFMSFSEADELLQLAAARQQVQAHIAKLRRQISLLEGQNQTVKTGSDL | not soluble
MGSDKIHHHHHHINVYFRGPRTHRMPQWVRVVFLQFLPKLVCMKRPKSASERSAVRSGMAQLPGVGQFTLSPSAHHPLCPSADDRTTTIRNTASNETSAYYPLSTDALRAIDAIEYITEHLKRDEQHKSFRDDWKYVAMIIDRL | not soluble
MTNLFLCSLRFQFVVVCTRYDQSVGFSTEEHNIVEDASGFVTQHSSGSTLNESSRSCLQLVIVSQRNLEVYLGRDNVETLRKIGEANRGEFSKDFSVWCKTVFESMSNAYVSSLETEQSNVTSRVTRNIRPRTNEENRMQMEELQTAMQVERSVAASSSLSSSFDWNAFLRDRCGLSEEDVAYCLPKLSFIGMIDLSGVTTEFLLKCGIDSPSLRLRIMLGIRQLLAK | not soluble
MMRLANGIVLDKDTTFGELKFSALRREVRIQNEDGSVSDEIKERTYDLKSKGQGRMIQVSIPASVPLKEFDYNARVELINPIADTVATATYQGADVDWYIKADDIVLTKDSLEHHHHHH | not soluble
MAHHHHHHMATLQVRDFDPRTATHYYHCILAGIPHPVTLQSISSAIVPDSECESVQNLEKIGCQIVPYRLHVFKETLSLKFGVVDFFIHHSTSGESANPAEVHELFLQWFGSSLTRGVMSLNSWISLGQPRELHSATPFVSALMEKCSFFDAKVVSDIEKLRTFILSKVRFDNRGLNAHANNRSRVAASEDSSLQEEQTRTDCGNDPSVEWKSVGTLSASSLDSQELAWLSRQHRQFPSIAPANEREASATWELEPVRTFLQKALTPLVEVVK | not soluble
MLGENHALIYEFPDFADHIRHLKKNNTIFATMAQRYHELDHKIRALELTKVPTDDEHFVALKLERLHLKDKLYQYLVHDAI | soluble
